Assay results published in article PMC4117941 (Genes & Development, 2014).

Columns and labels:
[1] = molecular target: Mcm3 (HA-Mcm3, subunit of the purified MCM2–7 hexamer) (S. cerevisiae, UniProt P24279 1-971); experiment: EM, three-dimensional reconstruction
[2] = molecular target: T1, Mcm4 (subunit of the purified MCM2–7 hexamer) (S. cerevisiae, UniProt P30665 1-933); experiment: EM, three-dimensional reconstruction
T1 sequence: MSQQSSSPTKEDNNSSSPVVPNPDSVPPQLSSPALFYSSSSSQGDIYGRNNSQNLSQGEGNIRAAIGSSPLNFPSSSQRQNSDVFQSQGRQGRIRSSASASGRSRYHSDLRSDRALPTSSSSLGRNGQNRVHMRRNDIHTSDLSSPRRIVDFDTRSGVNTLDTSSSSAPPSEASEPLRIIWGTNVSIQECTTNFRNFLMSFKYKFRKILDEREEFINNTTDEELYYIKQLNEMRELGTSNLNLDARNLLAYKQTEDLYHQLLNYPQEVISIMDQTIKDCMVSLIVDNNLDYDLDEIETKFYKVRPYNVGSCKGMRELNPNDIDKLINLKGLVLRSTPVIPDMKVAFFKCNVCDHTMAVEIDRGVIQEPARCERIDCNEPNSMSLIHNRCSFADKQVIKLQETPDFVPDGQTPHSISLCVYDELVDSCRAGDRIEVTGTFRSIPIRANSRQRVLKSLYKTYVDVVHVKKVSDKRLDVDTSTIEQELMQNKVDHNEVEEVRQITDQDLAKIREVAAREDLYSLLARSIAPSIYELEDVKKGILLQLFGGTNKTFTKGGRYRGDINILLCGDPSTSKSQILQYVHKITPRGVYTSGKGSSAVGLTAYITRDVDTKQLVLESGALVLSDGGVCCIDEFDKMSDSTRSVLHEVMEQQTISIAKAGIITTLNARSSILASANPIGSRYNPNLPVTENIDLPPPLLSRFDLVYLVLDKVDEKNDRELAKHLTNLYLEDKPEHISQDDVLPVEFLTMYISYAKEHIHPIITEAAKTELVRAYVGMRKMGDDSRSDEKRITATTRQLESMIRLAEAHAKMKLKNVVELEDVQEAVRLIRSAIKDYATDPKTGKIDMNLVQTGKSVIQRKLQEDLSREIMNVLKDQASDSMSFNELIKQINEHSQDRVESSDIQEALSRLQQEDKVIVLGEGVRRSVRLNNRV

Chain of Mcm3 (HA-Mcm3, subunit of the purified MCM2–7 hexamer) (P24279 whole entry): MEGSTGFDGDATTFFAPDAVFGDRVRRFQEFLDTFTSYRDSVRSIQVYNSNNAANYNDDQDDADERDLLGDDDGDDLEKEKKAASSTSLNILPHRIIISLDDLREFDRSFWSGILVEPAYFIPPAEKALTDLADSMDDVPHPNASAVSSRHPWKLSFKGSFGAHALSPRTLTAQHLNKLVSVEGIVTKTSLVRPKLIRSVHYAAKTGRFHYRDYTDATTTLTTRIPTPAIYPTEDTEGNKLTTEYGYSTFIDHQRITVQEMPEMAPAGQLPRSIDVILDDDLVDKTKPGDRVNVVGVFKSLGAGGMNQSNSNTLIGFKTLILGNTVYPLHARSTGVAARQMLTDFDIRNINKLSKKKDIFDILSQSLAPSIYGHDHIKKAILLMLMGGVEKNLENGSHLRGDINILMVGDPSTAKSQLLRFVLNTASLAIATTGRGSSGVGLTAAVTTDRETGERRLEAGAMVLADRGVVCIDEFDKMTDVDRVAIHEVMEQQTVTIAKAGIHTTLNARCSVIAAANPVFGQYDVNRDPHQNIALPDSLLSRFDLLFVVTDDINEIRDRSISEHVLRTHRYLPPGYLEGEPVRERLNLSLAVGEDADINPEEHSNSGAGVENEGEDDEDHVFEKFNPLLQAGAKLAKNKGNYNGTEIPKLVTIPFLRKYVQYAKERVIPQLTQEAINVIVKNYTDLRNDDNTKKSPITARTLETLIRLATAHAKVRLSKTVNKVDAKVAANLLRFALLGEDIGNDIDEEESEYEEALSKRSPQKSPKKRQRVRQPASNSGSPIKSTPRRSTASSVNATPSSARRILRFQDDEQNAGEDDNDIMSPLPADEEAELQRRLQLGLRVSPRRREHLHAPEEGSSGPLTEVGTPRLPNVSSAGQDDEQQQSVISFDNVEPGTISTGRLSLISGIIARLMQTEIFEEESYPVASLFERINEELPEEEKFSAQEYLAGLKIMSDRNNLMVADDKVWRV

B1: Mcm7 (subunit of the purified MCM2–7 hexamer) (natural protein)
chain: MSAALPSIQLPVDYNNLFNEITDFLVTFKQDTLSSDATRNENEDENLDAENIEQHLLEKGPKYMAMLQKVANRELNSVIIDLDDILQYQNEKFLQGTQADDLVSAIQQNANHFTELFCRAIDNNMPLPTKEIDYKDDVLDVILNQRRLRNERMLSDRTNEIRSENLMDTTMDPPSSMNDALREVVEDETELFPPNLTRRYFLYFKPLSQNCARRYRKKAISSKPLSVRQIKGDFLGQLITVRGIITRVSDVKPAVEVIAYTCDQCGYEVFQEVNSRTFTPLSECTSEECSQNQTKGQLFMSTRASKFSAFQECKIQELSQQVPVGHIPRSLNIHVNGTLVRSLSPGDIVDVTGIFLPAPYTGFKALKAGLLTETYLEAQFVRQHKKKFASFSLTSDVEERVMELITSGDVYNRLAKSIAPEIYGNLDVKKALLLLLVGGVDKRVGDGMKIRGDINVCLMGDPGVAKSQLLKAICKISPRGVYTTGKGSSGVGLTAAVMKDPVTDEMILEGGALVLADNGICCIDEFDKMDESDRTAIHEVMEQQTISISKAGINTTLNARTSILAAANPLYGRYNPRLSPLDNINLPAALLSRFDILFLMLDIPSRDDDEKLAEHVTYVHMHNKQPDLDFTPVEPSKMREYIAYAKTKRPVMSEAVNDYVVQAYIRLRQDSKREMDSKFSFGQATPRTLLGIIRLSQALAKLRLADMVDIDDVEEALRLVRVSKESLYQETNKSKEDESPTTKIFTIIKKMLQETGKNTLSYENIVKTVRLRGFTMLQLSNCIQEYSYLNVWHLINEGNTLKFVDDGTMDTDQEDSLVSTPKLAPQTTASANVSAQDSDIDLQDA
binding result [1]: binds | binding result [2]: binds
